Source: PMC2474647

Molecular target: GST-HP1β (UniProt P83917)
Assay: pull-down; GST-HP1β bound to glutathione beads, in nuclear extraction buffer, incubated with FLAG-TIF1βs purified from 293T cells by FLAG peptide elution; Western blot quantified with ImageGauge, normalised to GST-HP1β

UniProt P83917, sequence (P83917 whole entry): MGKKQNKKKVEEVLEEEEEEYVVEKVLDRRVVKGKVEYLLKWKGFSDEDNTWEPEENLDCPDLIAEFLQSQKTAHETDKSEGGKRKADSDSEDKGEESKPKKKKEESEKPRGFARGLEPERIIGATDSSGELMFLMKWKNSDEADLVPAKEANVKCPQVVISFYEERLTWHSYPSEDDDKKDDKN

Row | Substance | relative level pulled down by GST-HP1β (normalised to GST-HP1β)
1 | FLAG-TIF1β (wild type), expressed in 293T cells (natural protein) | 1.39
2 | FLAG-TIF1β/S473A, expressed in 293T cells (natural protein) | 1.63
